Reference: article PMC10891947, “Gene Expression of Ethanol and Acetate Metabolic Pathways in the Acinetobacter baumannii EmaSR Regulon” (Microorganisms, 2024)
Values joined by “and” are separate entries in the source; they are usually repeats but may differ in a detail not shown here. Equal entries are not always repeated.

What was measured:
[1] = substrate: CC(C)(COP(=O)(O)OP(=O)(O)OC[C@H]1O[C@@H](n2cnc3c(N)ncnc32)[C@H](O)[C@@H]1OP(=O)(O)O)[C@@H](O)C(=O)NCCC(=O)NCCSC(=O)CCC(=O)O; test: purified protein; assay type: biochemical, Acinetobacter baumannii; details: pH 8.0 potassium phosphate buffer, co-substrate acetate, one experiment
[2] = substrate: CC(=O)O; test: purified protein; details: pH 8.0 potassium phosphate buffer, co-substrate succinyl-CoA, one experiment

B1: DJ41_2796 (Acinetobacter baumannii ATCC 19606 = CIP 70.34 = JCM 6841) (protein)
chain: MSLSRIRLASLHDKVISAEQAAQFIENGMTVGMSGFTRAGEAKAVPQALVELAKKNPLKITLITGASLGNDLDKQLTEAGVLSRRMPFQVDNTLRRAINNGEVMFIDQHLSETVEQMRNQQLKRPDVAVIEAIAITEDGGIIPTTSVGNSASFAIFAEKVIVEINTSLSESFEGLHDIYIPTYRPTRTPIPLTKVDERIGTTAIQIDPSRIVGIVFNDTHDSPSTVTPPDDETQGIANHLIAFFEKEVAEGRLPKNLGPLQAGIGSIANAVLTGLKDSNFEDLIMYSEVLQDCTFELIDAGKMKFASGSSITLSAKCGEKVFGNIEAYKDKLVLRPQEISNHPELVRRLGIIGINTALEFDIYGNVNSTHVCGTKMMNGIGGSGDFARNAHLAIFVTKSIAKGGDISSIVPMVSHVDHSEHDVDILVTEQGLADLRGLAPRERARAIIDNCVHPLYRDALNDYFDRACAKGGHTPHLLREALSWHANFEETGQMLQPTPVAKSA
Km [1]: 0.3418 mM
Vmax [1]: 0.035 µmol/min
kcat [1]: 6.99 s⁻¹
kcat/Km [1]: 20500 M⁻¹ s⁻¹
Km [2]: 14.74 mM and 39 mM
Vmax [2]: 0.0335 µmol/min and 0.0415 µmol/min
kcat [2]: 6.7 s⁻¹ and 8.31 s⁻¹
kcat/Km [2]: 455 M⁻¹ s⁻¹ and 213 M⁻¹ s⁻¹
